Literature values as cited in PMC3184957, “Improving a Natural CaMKII Inhibitor by Random and Rational Design” (PLoS ONE, 2011).

Target: T1, CaMKIIα (Rattus norvegicus, UniProt P11275)
T1 construct: made in house; host or cells: baculovirus/Sf9 (CaMKII); bacteria (CaM)
Details: background statement of the abstract, no reference given; read-out: IC50 of CaMKII inhibition by CaM-KIIN
Description: Background CaM-KIIN has evolved to inhibit stimulated and autonomous activity of the Ca^2+/calmodulin (CaM)-dependent protein kinase II (CaMKII) efficiently, selectively, and potently (IC50 ∼100 nM). The CN class of peptides, derived from the inhibitory region of CaM-KIIN, provides powerful new tools to study CaMKII functions. The goal of this study was to identify the residues required for CaMKII inhibition, and to assess if artificial mutations could further improve the potency achieved during evolution. Methodology/Principal Findings First, the minimal region with full inhibitory potency wa ...

IC50: ~100 nM
B1: CaM-KIIN: natural CaMKII inhibitor protein expressed in brain (protein, UniProt Q7Z7J9 1-78, looked up)
Calcium/calmodulin-dependent …: MSEVLPYGDEKLSPYGDGGDVGQIFSCRLQDTNNFFGAGQNKRPPKLGQIGRSKRVVIEDDRIDDVLKNMTDKAPPGV
